The EC50 is the concentration giving half of the maximal effect. A higher EC50 goes with a less potent agent.

EC50 data for 1 molecule are collected here from patent publication US20240199757A1 (UNIVERSITY OF CHICAGO, published 2024).

The target of this experiment is T1, human NT5E expressed on MDA-MB-231 cells (human, UniProt P21589 27-549).
T1 construct: whole, on cells; also called NT5E-expressing MDA-MB-231 cells; CD73
T1 sequence (looked up): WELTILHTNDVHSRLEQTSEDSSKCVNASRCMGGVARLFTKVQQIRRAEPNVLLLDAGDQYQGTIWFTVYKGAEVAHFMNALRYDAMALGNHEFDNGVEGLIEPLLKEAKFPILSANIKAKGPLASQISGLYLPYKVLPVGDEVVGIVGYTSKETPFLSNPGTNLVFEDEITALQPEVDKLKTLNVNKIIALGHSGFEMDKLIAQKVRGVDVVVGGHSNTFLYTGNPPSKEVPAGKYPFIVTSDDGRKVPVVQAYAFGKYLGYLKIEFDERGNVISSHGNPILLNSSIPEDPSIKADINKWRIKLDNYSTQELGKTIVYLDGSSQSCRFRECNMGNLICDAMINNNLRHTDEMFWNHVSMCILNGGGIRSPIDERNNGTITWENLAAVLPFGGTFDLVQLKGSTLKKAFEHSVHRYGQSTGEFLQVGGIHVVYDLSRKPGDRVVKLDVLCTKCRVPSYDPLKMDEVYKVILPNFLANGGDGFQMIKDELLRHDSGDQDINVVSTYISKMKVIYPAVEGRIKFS
As to the kind of experiment: flow cytometry on MDA-MB-231 cells, 1 mM ATP. On the procedure:
Flow cytometry analysis of antibodies binding to human NT5E expressed on MDA-MB-231 cells in ATP-free condition (black) or in 1 mM ATP (red). Top panel: (left) 1780 Fab and (right) 1780 IgG titrations. […] Binding was measured at the indicated range of antibody concentrations and is expressed as mean±st. dev of median fluorescence intensity (MFI) of 1-2 replicates. Data were analyzed using OriginLab, and EC₅₀ values are shown next to the fitted curves.
Human MDA-MB-231 cells and murine 4T1 cells were grown to 90% confluency, detached with 5 mM EDTA for 15 min at 37° C. and then resuspended in 37° C. lx PBS (#10010031, Gibco) supplemented with 1% FBS and 1OpM ZnCl2. Separate working buffers (WB) of PBS and 1% FBS with or without fixed nucleotide concentrations were used throughout all washing steps to maintain constant condition. In 96-well plates (#3799, Costar), 0.2×10⁶ cells were added per well. The plates were spun at 500×g for 5 min and the supernatant was removed. Anti-NT5E antibodies were diluted to the desired concentration in 100 μL WB, added to the cells and the plates were incubated for 20 min at 37° C. Plates were spun and cells were washed twice with WB then spun a second time. Cells were stained with 100 μL of secondary antibody (Alexa Fluor 647 AffiniPure Goat Anti-Human IgG, F(ab′)2 fragment specific, #109-605-006, Jackson, 1:200) dilution and plates were incubated for 20 min at 37° C. Cells were washed twice with WB then fixed on ice with WB supplemented with 0.5% PFA. Fixing solution was removed by centrifugation and cells were resuspended in cold 1× PBS. Samples were analyzed by flow cytometry using CytoFLEX (Beckman Coulter) and mean fluorescence intensity (MFI) data was extracted using FlowJo software. Resulting binding data was plotted using OriginLab.

B1: 1789 Fab (Fab, V domains shown)
VH: EVQLVESGGGLVQPGGSLRLSCAASGFNVSYSSIHWVRQAPGKGLEWVASISSSSGYTYYADSVKGRFTISADTSKNTAYLQMNSLRAEDTAVYYCARNYWGWYPFYYFAFDYWGQGTLVTV
VL: DIQMTQSPSSLSASVGDRVTITCRASQSVSSAVAWYQQKPGKAPKLLIYSASSLYSGVPSRFSGSRSGTDFTLTISSLQPEDFATYYCQQGWDYPITFGQGTKVEIKR
Regarding B1, the concentration for a half-maximal effect (EC50) turned out to be 52 nM.
